B1: se1.pk0017.f5: soybean type IV GST encoded by cDNA insert in clone se1.pk0017.f5 (protein)
chain: MASLGVRPVLPPPLTSISDPPPLFDGTTRLYISYSCPYAQRVWIARNYKGLQDKINLVPINLQDRPAWYKEKVYPENKVPSLEHNGKVLGESLDLIKYVDANFEGTPLFPSDPAKKEFGEQLISHVDTFSKDLFVSLKGDAVQQASPAFEYLENALGKFDDGPFLLGQFSLVDIAYIPFVERFQIVFAEVFKHDITEGRPKLATWFEELNKLNAYTETRVDPQEIVDLFKKRFLPQQ
B2: se1.27b04: soybean type I GST encoded by cDNA insert in clone se1.27b04 (protein)
chain: MICLHEKEVDFELVPVNVFAAEHKQPPFLSKNPFGFIPVLEDGDLTLFESRAITAYVAEKFKETEPDLIRHKDAKEAALVKVWTEVESHYYEPAVSPIIYEYFVAPFQGKEPDKSVIDTNVEKLKTVLDVYEAKLSSTKYLAGDFYSLADLSHVSETHYLMQTPCASMINELPHVKAWWEDISSRPAFNKVVGGMSFGQNH
B3: ssl.pk0020.b10: soybean type III GST encoded by cDNA insert in clone ss1.pk0020.b10 (protein)
chain: MAEQDKVILHGMWASPYAKRVELALNFKGIPYEYVEEDLRNKSDLLLKYNPVHKKVPVLVHNGKAIAESMVILEYIDETWKDGPKLLPSDSYKRAQARFWCHFIQDQLMESTFLVVKTDGEAQQKAIDHVYEKLKVLEDGMKTYLGEGNAIISGVENNFGILDIVFCALYGAYKAHEEVIGLKFIVPEKFPVLFSWLMAIAEVEAVKIATPPHEKTVGILQLFRLSALKSSSATE
B4: ssl.pk0005.e6: soybean type III GST encoded by cDNA insert in clone ss1.pk0005.e6 (protein)
chain: MTDEVVLLDFWPSPFGMRVRIALAEKGIEYEYKEEDLRNKSPLLLQMNPVHKKIPVLIHNGKPISESLIAVQYIEEVWNDRNPLLPSDPYQRAQARFWADYVDIKIHDLGKKIWTSKGEEKEAAKKEFIEALKLLEEQLGDKTYFGGDNIGFVDIALVPFYTWFKVYETFGSLNIENECPRFVAWAKRCLQKESVAKSLPDQHKVYEFVVEIRKKLVIE
B5: ssm.pk0026.g11: soybean type II GST encoded by cDNA insert in clone ssm.pk0026.g11 (protein)
chain: MASASVGKELTLYSYWRSSCSHRVRIALNLKGLKYEYKPVNLLKGEQSRPEFLQLNPVGCVPVLVDDHVVLYDSFAIIMYLEDKYPHNPLLPHDIYKRAINFQAASVVSSTIQPLHNLSLLNYIGEKVGPDEKLPWAQSIIRRGFKALEKLLKDHTGRYATGDEVFLADIFLAPQLHAAFKRFNIHMNEFPILARLHETYNEIPAFQEALPENQPDAVH
B6: GST-A: soybean type III GST encoded by cDNA insert in clone GSTa (protein)
chain: MSDEVVLLDFWPSPFGMRVRIALAEKGIKYEYKEEDLRNKSPLLLQMNPVHKKIPVLIHNGKPICESLIAVQYIEEVWNDRNPLLPSDPYQRAQTRFWADYVDKKIYDLGRKIWTSKGEEKEAAKKEFIEALKLLEEQLGDKTYFGGDNLGFVDIALVPFYTWFKAYETFGTLNIEECPKFIAWAKRCLQKESVAKSLPDQQKVYEFIMDLRKKLGIE
B7: se6.pk0048.d7: soybean type III GST encoded by cDNA insert in clone se6.pk0048.d7 (protein)
chain: MADEVVLLDFWPSPFGMRVRIALAEKGIKYESKEEDLQNKSPLLLKMNPVHKKIPVLIHNGKPICESLVAVQYIEEVWNDRNPLLPSDPYQRAQARFWADFVDNKIFDLGRKIWTSKGEEKEAAKKEFIEALKLLEEQLGDKTYFGGDDLGFVDIALIPFDTWFKTFGSLNIESECPKFVAWAKRCLQKDSVAKSLPDQHKVYEFIMDIRKKFDIE
B8: ssl.pk0002.f7: soybean type III GST encoded by cDNA insert in clone ss1.pk0002.f7 (protein)
chain: MADGVVLLDTWASMFGMRVRIALAEKGVEYEYKEENLRNKSPLLLQMNPIHKKIPVLIHNGKPICESAIIVQYIDEVWNDKAPILPSDPYERAQARFWVDYIDKKVYDTWRKMWLSKGEEHEAGKKEFISIFKQLEETLSDKAYYGSDTFGFLDIGLIPFYSWFYTFETYGNFKMEEECPKLVAWAKRCMQREAVSKSLS

Experiments:
Assay type in all cases: biochemical
Settings in all cases: 0.4 mM electrophilic substrate, 4 mM glutathione, 0.1 M MOPS pH 7.0, corrected for uncatalyzed reaction
[1] = GST conjugation activity with chlorimuron ethyl (HPLC)
From the text: (§1) The GST enzymes, expressed and purified as described in Example 5 were screened for their ability to metabolize a variety of substrates. Substrates tested included the three herbicide electrophilic substrates chlorimuron ethyl, alachlor, and Atrazine, and four model electrophilic substrates, 1-chloro-2, 4-dinitro-benzene (CDNB), ethacrynic acid, t-stilbene oxide, and 1,2-epoxy-3-(p-nitro-phenoxy) propane. The enzymes were purified as described in Example 5 and used in the following assay.
(§2) For each enzyme, the conjugation reaction with each electrophilic substrate was performed by incubating 0.3 to 30 μg enzyme in 0.1 M MOPS (pH 7.0) containing 0.4 mM of the electrophilic substrate. The reaction was inititated by the addition of glutathione to a final concentration of 4 mM. After 5 to 30 min, the reaction was terminated by the addition of 45 μL acetonitrile, microfuged for 10 min to remove precipitated protein, and then the supematent was removed and added to 65 μL of water. This sample was chromatographed on a Zorbax C8 reverse phase HPLC column (3 μm particle size, 6.2 mm×8 cm) using a combination of linear gradients (flow=1.5 mL/min) of 1% H3 PO4 in water (solvent A) and 1% H3 PO4 in acetonitile. The gradient started with 5% solvent B, progressing from 5% to 75% solvent B between 1 and 10 min, and from 75% to 95% solvent B between 10 and 12 min. Control reactions without enzyme were performed to correct for uncatalyzed reaction. Quantitation of metabolites were based on an assumption that the extinction coefficient of the conjugate was identical to that of the electrophilic substrate.
(§3) Activities are related to the activity of a known and previously isolated and purified GST enzyme, GH2/4 (also called GST 26) (Czarnecka et al., Plant Molecular Biology 3:45-58 (1984); Ulmasoz et al., Plant Physiol 108:919-927 (1995)).

[2] = GST conjugation activity with alachlor (HPLC)
From the text: as §1, §2, §3

[3] = GST conjugation activity with Atrazine (HPLC)
From the text: as §1, §2, §3

[4] = GST conjugation activity with CDNB (HPLC)
From the text: as §1, §2, §3

[5] = GST conjugation activity with ethacrynic acid (HPLC)
From the text: as §1, §2, §3

[6] = GST conjugation activity with t-stilbene oxide (HPLC)
From the text: as §1, §2, §3

[7] = GST conjugation activity with 1,2-epoxy-3-(p-nitrophenoxy)propane (HPLC)
From the text: as §1, §2, §3

| Molecule | Activity of soybean GST enzyme, Chlorimuron Ethyl [1] [nmol/min/mg] | Activity of soybean GST enzyme, Alachlor [2] [nmol/min/mg] | Activity of soybean GST enzyme, Atrazine [3] [nmol/min/mg] | Activity of soybean GST enzyme, CDNB [4] [nmol/min/mg] | Activity of soybean GST enzyme, Ethacrynic Acid [5] [nmol/min/mg] | Activity of soybean GST enzyme, T-Stilbene Oxide [6] [nmol/min/mg] | Activity of soybean GST enzyme, 1,2-epoxy-3-(p-nitrophenoxy)propane [7] [nmol/min/mg] |
| --- | --- | --- | --- | --- | --- | --- | --- |
| B1 | 0.0 | 0 | 0.00 | 30 | 3 | 0.15 | 0 |
| B2 | 0.1 | 0 | 0.00 | 15 | 11 | 0.00 | 0 |
| B3 | 0.1 | 7 | 0.03 | 470 | 14 | 0.02 | 47 |
| B4 | 1.4 | 166 | 0.00 | 2030 | 11 | 0.06 | 4 |
| B5 | 0.0 | 0 | 0.00 | 15 | 5 | 0.04 | 2 |
| B6 | 0.5 | 71 | 0.03 | 1924 | 109 | 0.06 | 22 |
| B7 | 0.5 | 8 | 0.76 | 1379 | 4 | 0.07 | 9 |
| B8 | 0.9 | 30 | 0.00 | 2576 | 68 | 0.16 | 10 |

Source: patent US6168954A, “Soybean glutathione-S-transferase enzymes” (E. I. du Pont de Nemours & Company, priority 1999, dated 2001)
